# Source: the RNAGym collection of RNA variant scans (doi:10.1021/acssynbio.7b00057)
# B1: Pistol ribozyme (parent)
# chain: GGGUCGUUGUUCCAUAAUCGCGUGGAUAUGGCACGCAAGUUUCUACCGGGCACCGUAAAUGUCCGACUGGAGCCGUUCGGGCGGCUAUAAACAGACCUCAGGCCCGAAGCGUGGCGGCACCUGCCGCCGGUGGUAAAAAAGAUCGGAAGAGCACACGUCU
# Variants of: B1
# Assay: aptazyme ON/OFF ratio, guanine; higher = stronger switching; co-transcriptional cleavage with and without guanine
row,Variant,aptazyme ON/OFF ratio
1,U7G U8C U10A U11C C12G C13G,1.06
2,U7G U8C U10A U11C C12G C13U,1.16
3,U7G U8C G9U U10G U11C C13U,1.18
4,U7G U8C G9U U10G U11C C13A,1.38
5,U7G U8C G9U U10G U11C C13G,1.09
6,U7G U8C G9U U10C C12G C13U,1.29
7,U7G U8C G9U U10C C12G C13G,1.22
8,U7G U8C G9U U10C C12G C13A,1.31
9,U7G U8C G9U U10C U11G C12A,1.75
10,U7G U8C G9U U10C U11G C12G,1.1
11,U7G U8C G9U U10C U11G C12U,2.47
12,U7G U8C G9U U10C U11G C12A C13A,1.18
13,U7G U8C G9U U10C U11G C12A C13U,1.25
14,U7G U8C G9U U10C U11G C12A C13G,1.21
15,U7G U8C U10C C12G C13A,1.2
16,U7G U8C U10C C12G C13G,1.24
17,U7G U8C U10C C12G C13U,1.28
18,U7G U8C G9U U10A U11C C12U C13G,1.25
19,U7G U8C G9U U10A U11C C12U C13A,1.48
20,U7G U8C G9U U10A U11C C12U C13U,1.56
21,U7G U8C U10C,2.63
22,U7G U8C U10A,1.33
23,U7G U8C U10A U11C C12A C13A,1.13
24,U7G U8C U10A U11C C12A C13U,1.27

row,Variant,aptazyme ON/OFF ratio
1,U7G U8C U10A U11C C12A C13G,1.23
2,U7G U8C U10A U11G C13U,1.23
3,U7G U8C U10A U11G C13G,1.23
4,U7G U8C U10A U11G C13A,1.22
5,U7G U8C U10C U11A C12A,1.44
6,U7G U8C G9U U10A U11A C13A,1.3
7,U7G U8C G9U U10A U11A C13U,1.79
8,U7G U8C G9U U10A U11A C13G,1.08
9,U7G U8C G9U U10C U11G C12G C13G,1.11
10,U7G U8C G9U U10C U11G C12G C13A,1.08
11,U7G U8C G9U U10C U11G C12G C13U,1.08
12,U7G U8C G9U U10G C12U,1.25
13,U7G U8C G9U U10G C12A,1.58
14,U7G U8C G9U U10G C12G,1.5
15,U7G U8C G9U U10G U11G C13G,1.17
16,U7G U8C G9U U10G U11G C13A,1.22
17,U7G U8C G9U U10G U11G C13U,1.36
18,U7G U8C G9U U10A C12A C13G,1.17
19,U7G U8C G9U U10A C12A C13U,1.24
20,U7G U8C G9U U10A C12A C13A,1.18
21,U7G U8C G9U U10C U11C C12G C13U,1.22
22,U7G U8C G9U U10C U11C C12G C13G,1.29
23,U7G U8C G9U U10C U11C C12G C13A,1.45
24,U7G U8C G9U U10A C12U C13U,1.16

row,Variant,aptazyme ON/OFF ratio
1,U7G U8C G9U U10A C12U C13A,1.21
2,U7G U8C G9U U10A C12U C13G,1.16
3,U7G U8C U10A U11G C12A C13G,1.13
4,U7G U8C U10A U11G C12A C13A,1.08
5,U7G U8C U10A U11G C12A C13U,1.19
6,U7G U8C G9U U10A U11A C12G C13G,1.16
7,U7G U8C G9U U10A U11A C12G C13A,1.07
8,U7G U8C G9U U10A U11A C12G C13U,1.19
9,U7G U8C G9U U10G U11G C12U C13U,1.44
10,U7G U8C G9U U10G U11G C12U C13A,1.17
11,U7G U8C G9U U10G U11G C12U C13G,1.08
12,U7G U8C G9U U10A U11A C12A C13A,1.29
13,U7G U8C G9U U10A U11A C12A C13G,1.11
14,U7G U8C G9U U10A U11A C12A C13U,1.32
15,U7G U8C U10A U11G C12U,1.22
16,U7G U8C U10A U11G C12A,1.1
17,U7G U8C U10A U11G C12G,1.19
18,U7G U8C G9U U10C C12U C13U,1.26
19,U7G U8C G9U U10C C12U C13G,1.24
20,U7G U8C G9U U10C C12U C13A,1.35
21,U7G U8C G9U U10G U11C C12U,1.26
22,U7G U8C G9U U10G U11C C12G,1.38
23,U7G U8C G9U U10G U11C C12A,2.33
24,U7G U8C G9U U10A U11G,2.29

row,Variant,aptazyme ON/OFF ratio
1,U7G U8C G9U U10A U11C,1.37
2,U7G U8C G9U U10A U11A,4.34
3,U7G U8C G9U U10C U11G C13U,1.38
4,U7G U8C G9U U10C U11G C13A,1.44
5,U7G U8C G9U U10C U11G C13G,1.09
6,U7G U8C G9U U11G C12G C13U,1.09
7,U7G U8C G9U U11G C12G C13A,1.08
8,U7G U8C G9U U11G C12G C13G,1.12
9,U7G U8C U10C U11A,2.21
10,U7G U8C G9U U10C U11A C12U C13G,1.39
11,U7G U8C G9U U10C U11A C12U C13A,1.72
12,U7G U8C G9U U10C U11A C12U C13U,1.9
13,U7G U8C G9U U10G U11G,1.55
14,U7G U8C G9U U10G U11C,1.15
15,U7G U8C G9U U10G U11A,1.21
16,U7G U8C G9U U10G U11A C12G C13A,1.16
17,U7G U8C G9U U10G U11A C12G C13U,1.25
18,U7G U8C G9U U10G U11A C12G C13G,1.12
19,U7G U8C U10A C12G,1.29
20,U7G U8C U10A C12U,1.31
21,U7G U8C U10A C12A,1.21
22,U7G U8C G9U C13G,1.04
23,U7G U8C G9U C13U,2.37
24,U7G U8C G9U C13A,1.36

row,Variant,aptazyme ON/OFF ratio
1,U7G U8C G9U U10C U11A C12A C13G,1.31
2,U7G U8C G9U U10C U11A C12A C13U,2.1
3,U7G U8C G9U U10C U11A C12A C13A,1.52
4,U7G U8C G9U U10A C12G C13A,1.13
5,U7G U8C G9U U10A C12G C13G,1.08
6,U7G U8C G9U U10A C12G C13U,1.22
7,U7G U8C G9U U10C U11C C12U C13A,1.55
8,U7G U8C G9U U10C U11C C12U C13U,1.27
9,U7G U8C G9U U10C U11C C12U C13G,1.41
10,U7G U8C G9U U10C U11A C12A,2.7
11,U7G U8C G9U U10C U11A C12U,2.96
12,U7G U8C G9U U10C U11A C12G,1.98
13,U7G U8C G9U U10G C12U C13U,1.34
14,U7G U8C G9U U10G C12U C13A,1.29
15,U7G U8C G9U U10G C12U C13G,1.39
16,U7G U8C G9U U10A U11G C12G,1.19
17,U7G U8C G9U U10A U11G C12A,1.12
18,U7G U8C G9U U10A U11G C12U,1.33
19,U7G U8C U10C C12A C13G,1.16
20,U7G U8C U10C C12A C13U,1.24
21,U7G U8C U10C C12A C13A,1.19
22,U7G U8C G9U C12G C13G,1.32
23,U7G U8C G9U C12G C13U,1.32
24,U7G U8C G9U U10C U11G C12U C13A,1.34

row,Variant,aptazyme ON/OFF ratio
1,U7G U8C G9U U10C U11G C12U C13G,1.21
2,U7G U8C G9U U10C U11G C12U C13U,1.28
3,U7G U8C G9U U10A U11C C13U,1.18
4,U7G U8C G9U U10A U11C C13G,1.05
5,U7G U8C G9U U10A U11C C13A,1.42
6,U7G U8C G9U U11C C12U C13G,1.05
7,U7G U8C G9U U11C C12U C13U,1.49
8,U7G U8C G9U U11C C12U C13A,1.31
9,U7G U8C U10A C12G C13G,1.15
10,U7G U8C U10A C12G C13A,1.22
11,U7G U8C U10A C12G C13U,1.32
12,U7G U8C G9U U10G C12A C13U,1.24
13,U7G U8C G9U U10G C12A C13A,1.37
14,U7G U8C G9U U10G C12A C13G,1.11
15,U7G U8C G9U U10G C13U,1.24
16,U7G U8C G9U U10G C13A,1.24
17,U7G U8C G9U U10G C13G,1.27
18,U7G U8C G9U U10C U11C C12U,1.29
19,U7G U8C G9U U10C U11C C12A,1.42
20,U7G U8C G9U U10C U11C C12G,1.16
21,U7G U8C G9U U10G U11A C12A C13G,1.15
22,U7G U8C G9U U10G U11A C12A C13U,1.38
23,U7G U8C G9U U10G U11A C12A C13A,1.12
24,U7G U8C G9U U10A U11C C12G C13G,1.05

row,Variant,aptazyme ON/OFF ratio
1,U7G U8C G9U U10A U11C C12G C13A,1.14
2,U7G U8C G9U U10A U11C C12G C13U,1.31
3,U7G U8C U10A U11C C13G,1.04
4,U7G U8C U10A U11C C13A,1.05
5,U7G U8C U10A U11C C13U,1.04
6,U7G U8C U10A C12A C13U,1.36
7,U7G U8C U10A C12A C13A,1.24
8,U7G U8C U10A C12A C13G,1.1
9,U7G U8C G9U U10G U11G C12A C13U,1.34
10,U7G U8C G9U U10G U11G C12A C13G,1.12
11,U7G U8C G9U U10G U11G C12A C13A,1.11
12,U7G U8C U10A U11C,1.04
13,U7G U8C U10A U11G,1.29
14,U7G U8C U10A U11A,2.71
15,U7G U8C G9U U10A U11G C13G,1.1
16,U7G U8C G9U U10A U11G C13U,1.38
17,U7G U8C G9U U10A U11G C13A,1.14
18,U7G U8C G9U U11G C12A C13G,1.35
19,U7G U8C G9U U11G C12A C13U,1.38
20,U7G U8C G9U U11G C12A C13A,1.11
21,U7G U8C G9U U10C U11A,3.02
22,U7G U8C G9U U10C U11G,1.76
23,U7G U8C G9U U10C U11C,1.32
